Results as given in patent US20210361776A1 (Seagen, published 2021).
Where two headings read alike, the source gives them in different places.

Columns and labels:
[1] = target: T1, human Glypican 3 (GPC3) on GPC3-positive cells (human, UniProt P51654 25-554); assay: competition with AlexaFluor-488 labeled mGPC3-1 on GPC3-positive cells, flow cytometry
T1 construct: whole, on cells; the methods say only 'GPC3-positive cells'; also called hGPC3
Description: (§1) Cells were centrifuged, washed 3 times with PBS, and resuspended in 125 μL of a PBS+2% FBS solution. […] The EC50 was extrapolated by fitting the data to a sigmoidal dose-response curve with variable slope.

[2] = target: T2, Human GPC3 (hGPC3 GP3-H5258, AcroBiosystems), biotinylated (human, UniProt P51654 25-559, biotinylated with Pierce NHS-LC-LC-Biotin at 1.5:1 biotin/protein ratio); assay: BLI (Octet Red 384), biotinylated hGPC3 on SAX biosensors, hGPC3-1ec as analyte, bivalent binding, 1:1 fit; bivalent binding, kinetic 1:1 fit (kdiss/kon)
T2 construct: Bought protein; also called immobilized hGPC3
Description: (§2) Human GPC3 (hGPC3 GP3-H5258) was purchased from AcroBiosystems and biotinylated using Pierce NHS-LC-LC-Biotin at a molar ratio of 1.5:1 biotin/protein ratio. Biolayer interferometry (BLI) was performed on an Octet Red 384 system (ForteBio) with High Precision Streptavidin (SAX) Biosensors and GPC3 as the probe using hGPC3-1ec as the analyte.

[3] = target: T2, Human GPC3 (hGPC3 GP3-H5258, …); assay: BLI (Octet Red 384), biotinylated hGPC3 on SAX biosensors, hGPC3-1ec as analyte, bivalent binding, 1:1 fit, dissociation 1800 sec; bivalent binding, kinetic 1:1 fit, disassociation of 1800 sec
Description: as §2

[4] = target: T2, Human GPC3 (hGPC3 GP3-H5258, …); assay: BLI (Octet Red 384), biotinylated hGPC3 on SAX biosensors, hGPC3-1ec as analyte, bivalent binding, 1:1 fit, association 600 sec; bivalent binding, kinetic 1:1 fit, association of 600 sec
Description: as §2

[5] = target: T2, Human GPC3 (hGPC3 GP3-H5258, …); assay: BLI/SPR steady state: 600 second maximum response against concentration, half maximal binding (FIG. 6); binding affinity from FIG. 6, not the bivalent kinetic fit
Description: (Left) Multiple sensorgrams represent several concentrations (400, 160, 64, 25.6, 10.2, 4.1, and 1.64 nM) of hGPC3-1ec associating with immobilized hGPC3. (Right) The KD was determined by plotting the 600 second maximum response for each concentration and was defined by half maximal binding.
as §2

[6] = target: T1, human Glypican 3 (GPC3) on …; assay: competition with AlexaFluor-488 labeled mGPC3-1 on GPC3-positive cells, flow cytometry; remark: listed apart in the source
Description: as §1

T2 sequence (P51654 25-559 limits assumed): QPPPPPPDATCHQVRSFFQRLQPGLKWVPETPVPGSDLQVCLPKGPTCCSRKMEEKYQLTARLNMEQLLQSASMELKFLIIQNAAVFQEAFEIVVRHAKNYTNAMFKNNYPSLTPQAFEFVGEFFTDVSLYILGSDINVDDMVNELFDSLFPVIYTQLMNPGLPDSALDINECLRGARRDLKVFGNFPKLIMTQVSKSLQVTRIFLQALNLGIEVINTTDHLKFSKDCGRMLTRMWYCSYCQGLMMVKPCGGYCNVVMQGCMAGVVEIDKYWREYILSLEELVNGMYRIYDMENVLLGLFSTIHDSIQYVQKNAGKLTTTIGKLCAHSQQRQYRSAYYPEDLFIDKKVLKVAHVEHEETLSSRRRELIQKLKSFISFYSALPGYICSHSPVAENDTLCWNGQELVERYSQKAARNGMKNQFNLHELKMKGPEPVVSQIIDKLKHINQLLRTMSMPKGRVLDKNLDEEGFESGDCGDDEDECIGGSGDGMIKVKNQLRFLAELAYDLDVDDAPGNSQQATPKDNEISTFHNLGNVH
T1 sequence (P51654 25-554 limits assumed): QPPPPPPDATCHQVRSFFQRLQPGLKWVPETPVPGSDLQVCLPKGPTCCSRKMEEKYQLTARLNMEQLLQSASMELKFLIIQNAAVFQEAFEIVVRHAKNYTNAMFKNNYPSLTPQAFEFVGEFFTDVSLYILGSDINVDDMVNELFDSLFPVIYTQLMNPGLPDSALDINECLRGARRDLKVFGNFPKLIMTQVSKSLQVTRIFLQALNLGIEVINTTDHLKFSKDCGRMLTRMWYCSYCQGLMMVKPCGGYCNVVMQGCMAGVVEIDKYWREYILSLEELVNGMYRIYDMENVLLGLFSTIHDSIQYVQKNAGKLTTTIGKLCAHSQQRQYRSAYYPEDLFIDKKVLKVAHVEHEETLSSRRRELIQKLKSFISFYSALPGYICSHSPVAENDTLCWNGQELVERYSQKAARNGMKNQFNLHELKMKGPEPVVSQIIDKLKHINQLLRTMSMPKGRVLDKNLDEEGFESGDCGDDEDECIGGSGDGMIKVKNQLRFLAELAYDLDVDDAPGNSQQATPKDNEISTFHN

Binder | EC50 [1] | further results
murine GPC3-1 antibody (antibody, V domains shown, Murine hybridoma IgG; also called mGPC3-1) VH: QVQLQQSGAELVRPGASVTLSCKASGYTFTDYEMHWVKQTPVHGLEWIGGIDPETGGTAYNQKFKGKATLTADKSSSTAYMDLRSLTSEDSAVYYCGRYYSFAYWGQGTLVTVSA VL: DVLMTQTPLSLPLSLGDQASISCRSSQSIVHSNGNTYLQWFLQKPGQSPKLLIYKVSNRFSGVPDRFSGSGSGTDFTLKIGRVEAEDLGVYYCFQVSHVPYTFGGGTKLVMK | 9 nM | –
hGPC3-1 HCLB (antibody, V domains shown, Kabat positions) VH: EVQLVQSGAEVKKPGATVKISCKASGYTFTDYEMHWVQQAPGKGLEWIGGIDPETGGTAYNQKFKGRATLTADKSTDTAYMELSSLRSEDTAVYYCGRYYSFAYWGQGTLVTVSS VL: DVVMTQSPLSLPVTLGQPASISCRSSQSIVHSNGNTYLQWFQQRPGQSPRLLIYKVSNRFSGVPDRFSGSGSGTDFTLKISRVEAEDVGVYYCFQVSHVPYTFGQGTKLEIK | 18 nM | –
hGPC3-1ec (HBLE) (antibody, V domains shown, HBLE variable regions on IgG1 with a cysteine substitution at position 239 of the heavy chain (S239C, EU index); 'ec' marks this; Tested unconjugated; also called humanized GPC3-1ec) VH: EVQLVQSGAEVKKPGATVKISCKVSGYTFTDYEMHWVQQAPGKGLEWMGGIDPETGGTAYNQKFKGRVTLTADKSTDTAYMELSSLRSEDTAVYYCGRYYSFAYWGQGTLVTVSS VL: DVVMTQSPLSLPVTLGQPASISCRSSQSIVHSNANTYLQWFQQRPGQSPRLLIYKVSNRFSGVPDRFSGSGSGTDFTLKISRVEAEDVGVYYCFQVSHVPYTFGQGTKLEIK | – | Kd [2]: 0.204 nM; koff [3]: 2.3e-05 s⁻¹; kon [4]: 113000 M⁻¹ s⁻¹; Kd [5]: 14 nM
hGPC3-1 HALC (antibody, V domains shown, Kabat positions) VH: QVQLVQSGAEVKKPGASVKVSCKASGYTFTDYEMHWVRQAPGQGLEWIGGIDPETGGTAYNQKFKGRATLTADTSTSTAYMELRSLRSDDTAVYYCARYYSFAYWGQGTLVTVSS VL: DVVMTQSPLSLPVTLGQPASISCRSSQSIVHSNGNTYLQWFQQRPGQSPKLLIYKVSNRFSGVPDRFSGSGSGTDFTLKISRVEAEDVGVYYCFQVSHVPYTFGQGTKLVMK | 63 nM | –
hGPC3-1 HALB (antibody, V domains shown, Kabat position) VH: QVQLVQSGAEVKKPGASVKVSCKASGYTFTDYEMHWVRQAPGQGLEWIGGIDPETGGTAYNQKFKGRATLTADTSTSTAYMELRSLRSDDTAVYYCARYYSFAYWGQGTLVTVSS VL: DVVMTQSPLSLPVTLGQPASISCRSSQSIVHSNGNTYLQWFQQRPGQSPRLLIYKVSNRFSGVPDRFSGSGSGTDFTLKISRVEAEDVGVYYCFQVSHVPYTFGQGTKLEIK | 91 nM | –
hGPC3-1 HBLB-V (antibody, V domains shown, Kabat position) VH: EVQLVQSGAEVKKPGATVKISCKVSGYTFTDYEMHWVQQAPGKGLEWMGGIDPETGGTAYNQKFKGRVTLTADKSTDTAYMELSSLRSEDTAVYYCGRYYSFAYWGQGTLVTVSS VL: DVVMTQSPLSLPVTLGQPASISCRSSQSIVHSNVNTYLQWFQQRPGQSPRLLIYKVSNRFSGVPDRFSGSGSGTDFTLKISRVEAEDVGVYYCFQVSHVPYTFGQGTKLEIK | – | EC50 [6]: 4 nM
hGPC3-1 HBLB-Q (antibody, V domains shown, Kabat positions) VH: EVQLVQSGAEVKKPGATVKISCKVSGYTFTDYEMHWVQQAPGKGLEWMGGIDPETGGTAYNQKFKGRVTLTADKSTDTAYMELSSLRSEDTAVYYCGRYYSFAYWGQGTLVTVSS VL: DVVMTQSPLSLPVTLGQPASISCRSSQSIVHSQGNTYLQWFQQRPGQSPRLLIYKVSNRFSGVPDRFSGSGSGTDFTLKISRVEAEDVGVYYCFQVSHVPYTFGQGTKLEIK | – | EC50 [6]: 7 nM
hGPC3-1 HBLA (antibody, V domains shown, Kabat positions) VH: EVQLVQSGAEVKKPGATVKISCKVSGYTFTDYEMHWVQQAPGKGLEWMGGIDPETGGTAYNQKFKGRVTLTADKSTDTAYMELSSLRSEDTAVYYCGRYYSFAYWGQGTLVTVSS VL: DVVMTQSPLSLPVTLGQPASISCRSSQSIVHSNGNTYLQWFQQRPGQSPRRLIYKVSNRFSGVPDRFSGSGSGTDFTLKISRVEAEDVGVYYCFQVSHVPYTFGQGTKLEIK | 203 nM | –
hGPC3-1 HBLE (antibody, V domains shown, Only variable regions are tied to the antibody; also called lead humanized GPC3-1 antibody) VH: EVQLVQSGAEVKKPGATVKISCKVSGYTFTDYEMHWVQQAPGKGLEWMGGIDPETGGTAYNQKFKGRVTLTADKSTDTAYMELSSLRSEDTAVYYCGRYYSFAYWGQGTLVTVSS VL: DVVMTQSPLSLPVTLGQPASISCRSSQSIVHSNANTYLQWFQQRPGQSPRLLIYKVSNRFSGVPDRFSGSGSGTDFTLKISRVEAEDVGVYYCFQVSHVPYTFGQGTKLEIK | – | EC50 [6]: 3 nM
hGPC3-1 HBLD (antibody, V domains shown, Kabat positions) VH: EVQLVQSGAEVKKPGATVKISCKVSGYTFTDYEMHWVQQAPGKGLEWMGGIDPETGGTAYNQKFKGRVTLTADKSTDTAYMELSSLRSEDTAVYYCGRYYSFAYWGQGTLVTVSS VL: DVVMTQSPLSLPVTLGQPASISCRSSQSIVHSDGNTYLQWFQQRPGQSPRLLIYKVSNRFSGVPDRFSGSGSGTDFTLKISRVEAEDVGVYYCFQVSHVPYTFGQGTKLEIK | – | EC50 [6]: 74 nM
hGPC3-1 HCLA (antibody, V domains shown, Kabat positions) VH: EVQLVQSGAEVKKPGATVKISCKASGYTFTDYEMHWVQQAPGKGLEWIGGIDPETGGTAYNQKFKGRATLTADKSTDTAYMELSSLRSEDTAVYYCGRYYSFAYWGQGTLVTVSS VL: DVVMTQSPLSLPVTLGQPASISCRSSQSIVHSNGNTYLQWFQQRPGQSPRRLIYKVSNRFSGVPDRFSGSGSGTDFTLKISRVEAEDVGVYYCFQVSHVPYTFGQGTKLEIK | 76 nM | –
hGPC3-1 HDLA (antibody, V domains shown, Kabat positions) VH: EVQLVQSGAEVKKPGATVKISCKASGYTFTDYEMHWVKQAPGKGLEWIGGIDPETGGTAYNQKFKGKATLTADKSTDTAYMELSSLRSEDTAVYYCGRYYSFAYWGQGTLVTVSS VL: DVVMTQSPLSLPVTLGQPASISCRSSQSIVHSNGNTYLQWFQQRPGQSPRRLIYKVSNRFSGVPDRFSGSGSGTDFTLKISRVEAEDVGVYYCFQVSHVPYTFGQGTKLEIK | 149 nM | –
hGPC3-1 HBLB (antibody, V domains shown, Kabat position) VH: EVQLVQSGAEVKKPGATVKISCKVSGYTFTDYEMHWVQQAPGKGLEWMGGIDPETGGTAYNQKFKGRVTLTADKSTDTAYMELSSLRSEDTAVYYCGRYYSFAYWGQGTLVTVSS VL: DVVMTQSPLSLPVTLGQPASISCRSSQSIVHSNGNTYLQWFQQRPGQSPRLLIYKVSNRFSGVPDRFSGSGSGTDFTLKISRVEAEDVGVYYCFQVSHVPYTFGQGTKLEIK | 14 nM | EC50 [6]: 3 nM
hGPC3-1 HBLC (antibody, V domains shown, Kabat positions) VH: EVQLVQSGAEVKKPGATVKISCKVSGYTFTDYEMHWVQQAPGKGLEWMGGIDPETGGTAYNQKFKGRVTLTADKSTDTAYMELSSLRSEDTAVYYCGRYYSFAYWGQGTLVTVSS VL: DVVMTQSPLSLPVTLGQPASISCRSSQSIVHSNGNTYLQWFQQRPGQSPKLLIYKVSNRFSGVPDRFSGSGSGTDFTLKISRVEAEDVGVYYCFQVSHVPYTFGQGTKLVMK | 25 nM | –
hGPC3-1 HDLC (antibody, V domains shown, Kabat positions) VH: EVQLVQSGAEVKKPGATVKISCKASGYTFTDYEMHWVKQAPGKGLEWIGGIDPETGGTAYNQKFKGKATLTADKSTDTAYMELSSLRSEDTAVYYCGRYYSFAYWGQGTLVTVSS VL: DVVMTQSPLSLPVTLGQPASISCRSSQSIVHSNGNTYLQWFQQRPGQSPKLLIYKVSNRFSGVPDRFSGSGSGTDFTLKISRVEAEDVGVYYCFQVSHVPYTFGQGTKLVMK | 13 nM | –
hGPC3-1 HCLC (antibody, V domains shown, Kabat positions) VH: EVQLVQSGAEVKKPGATVKISCKASGYTFTDYEMHWVQQAPGKGLEWIGGIDPETGGTAYNQKFKGRATLTADKSTDTAYMELSSLRSEDTAVYYCGRYYSFAYWGQGTLVTVSS VL: DVVMTQSPLSLPVTLGQPASISCRSSQSIVHSNGNTYLQWFQQRPGQSPKLLIYKVSNRFSGVPDRFSGSGSGTDFTLKISRVEAEDVGVYYCFQVSHVPYTFGQGTKLVMK | 19 nM | –
hGPC3-1 HDLB (antibody, V domains shown, Kabat positions) VH: EVQLVQSGAEVKKPGATVKISCKASGYTFTDYEMHWVKQAPGKGLEWIGGIDPETGGTAYNQKFKGKATLTADKSTDTAYMELSSLRSEDTAVYYCGRYYSFAYWGQGTLVTVSS VL: DVVMTQSPLSLPVTLGQPASISCRSSQSIVHSNGNTYLQWFQQRPGQSPRLLIYKVSNRFSGVPDRFSGSGSGTDFTLKISRVEAEDVGVYYCFQVSHVPYTFGQGTKLEIK | 10 nM | –
